Test results published in US7371551B1, “Feedback-resistant homoserine transsuccinylases” (priority 2002, dated 2008).
Substitutions are numbered along the chain they refer to.

B1: pSLmetAA: MetA variant with Ala instead of Asp at position 101 (protein, UniProt P07623 2-309, looked up, variant D101A)
Homoserine …: PIRVPDELPAVNFLREENVFVMTTSRASGQEIRPLKVLILNLMPKKIETENQFLRLLSNSPLQVDIQLLRIDSRESRNTPAEHLNNFYCNFEDIQDQNFAGLIVTGAPLGLVEFNDVAYWPQIKQVLEWSKDHVTSTLFVCWAVQAALNILYGIPKQTRTEKLSGVYEHHILHPHALLTRGFDDSFLAPHSRYADFPAALIRDYTDLEILAETEEGDAYLFASKDKRIAFVTGHPEYDAQTLAQEFFRDVEAGLDPDVPYNYFPHNDPQNTPRASWRSHGNLLFTNWLNYYVYQITPYDLRHMNPTLD
B2: pSLmetAC: MetA variant with Cys instead of Asp at position 101 (protein, UniProt P07623 2-309, looked up, variant D101C)
Homoserine …: B1 Homoserine … with A100C
B3: pSLmetAH: MetA variant with His instead of Asp at position 101 (protein, UniProt P07623 2-309, looked up, variant D101H)
Homoserine …: B1 Homoserine … with A100H
B4: pSLmetAY: MetA variant with Tyr instead of Asp at position 101 (protein, UniProt P07623 2-309, looked up, variant D101Y)
Homoserine …: B1 Homoserine … with A100Y
B5: pSLmetAS: MetA variant with Ser instead of Asp at position 101 (protein, UniProt P07623 2-309, looked up, variant D101S)
Homoserine …: B1 Homoserine … with A100S
B6: pSLmetA*0: MetA variant in which amino acid 294 is deleted (protein, UniProt P07623 2-309, looked up, variant Y294*)
Homoserine …: PIRVPDELPAVNFLREENVFVMTTSRASGQEIRPLKVLILNLMPKKIETENQFLRLLSNSPLQVDIQLLRIDSRESRNTPAEHLNNFYCNFEDIQDQNFDGLIVTGAPLGLVEFNDVAYWPQIKQVLEWSKDHVTSTLFVCWAVQAALNILYGIPKQTRTEKLSGVYEHHILHPHALLTRGFDDSFLAPHSRYADFPAALIRDYTDLEILAETEEGDAYLFASKDKRIAFVTGHPEYDAQTLAQEFFRDVEAGLDPDVPYNYFPHNDPQNTPRASWRSHGNLLFTNWLNYYVQITPYDLRHMNPTLD
B7: pKP413GAP: E. coli wild-type homoserine transsuccinylase (MetA; Asp101, Tyr294) expressed from starting plasmid pKP413GAP (protein, UniProt P07623 2-309, looked up)
Homoserine …: B1 Homoserine … with A100D
B8: pSLmetA*P: MetA variant with Pro instead of Tyr at position 294 (protein, UniProt P07623 2-309, looked up, variant Y294P)
Homoserine …: B1 Homoserine … with A100D, Y293P
B9: pSLmetA*L: MetA variant with Leu instead of Tyr at position 294 (protein, UniProt P07623 2-309, looked up, variant Y294L)
Homoserine …: B1 Homoserine … with A100D, Y293L
B10: pKP446: MetA variant with Cys instead of Tyr at position 294 (protein, UniProt P07623 2-309, looked up, variant Y294C)
Homoserine …: B1 Homoserine … with A100D, Y293C
B11: pSLmetA*Q: MetA variant with Gln instead of Tyr at position 294 (protein, UniProt P07623 2-309, looked up, variant Y294Q)
Homoserine …: B1 Homoserine … with A100D, Y293Q
B12: pSLmetAN: MetA variant with Asn instead of Asp at position 101 (protein, UniProt P07623 2-309, looked up, variant D101N)
Homoserine …: B1 Homoserine … with A100N
B13: pSLmetA*K: MetA variant with Lys instead of Tyr at position 294 (protein, UniProt P07623 2-309, looked up, variant Y294K)
Homoserine …: B1 Homoserine … with A100D, Y293K
B14: pSLmetA*A: MetA variant with Ala instead of Tyr at position 294 (protein, UniProt P07623 2-309, looked up, variant Y294A)
Homoserine …: B1 Homoserine … with A100D, Y293A

These molecules were tested on homoserine transsuccinylase (assay: Homoserine transsuccinylase enzyme test using cell extracts, decrease in extinction at 232 nm, with and without L-methionine). Conditions: 1 mM L-methionine; activity in the absence of L-methionine corresponds to 100%.
Format: biochemical, E. coli
Source text: Any method which enables the activity of the enzyme to be determined in the presence of L-methionine or SAM can be used for determining the sensitivity of the homoserine transsuccinylase to L-methionine and/or SAM. For example, the homoserine transsuccinylase activity can be determined by following the method described by Kredich and Tomkins for determining the activity of serine acetyltransferases (Kredich N. M. and Tomkins G. M., J. Biol. Chem. 241, 4955-4965 (1966)). The enzyme activity is measured in an assay sample which contains homoserine and succinyl-CoA. The reaction is started by adding enzyme and monitored in a spectrophotometer by way of the decrease in the extinction at 232 nm which results from cleavage of the thioester bond in the succinyl-coenzyme A. The described test is suitable for determining the sensitivity of the homoserine transsuccinylases to methionine. The inhibition of homoserine transsuccinylase activity is tested in the presence of different concentrations of L-methionine in the reaction mixture.
The activity, and the influence of L-methionine on the activity, of the different homoserine transsuccinylases were determined by means of an enzyme test using cell extracts in which the respective proteins had been produced. For this, the corresponding plasmids, encoding altered homoserine transsuccinylases, were introduced, by transformation, into the E. coli strain W3110 (ATCC 27325) using methods known to the skilled person. The transformation mixture was spread on LB-tetracycline agar plates (10 g of tryptone/l, 5 g of yeast extract/l, 5 g of NaCl/l, 15 g of agar/l and 15 mg of tetracycline/l) and incubated at 37° C. overnight. The resulting transformants were grown in SM1 medium (for 1 l of medium: CaCl2×2H2O, 0.0147 g, MgSO4×7H2O, 0.3 g, Na2MoO4×2H2O, 0.15 mg, H3BO3, 2.5 mg, CoCl2×6H2O, 0.7 mg, CuSO4×5H2O, 0.25 mg, MnCl2×4H2O, 1.6 mg, ZnSO4×7H2O, 0.3 mg, KH2PO4, 3.0 g, K2HPO4, 12.0 g, (NH4)2SO4, 5 g, NaCl, 0.6 g, FeSO4×7H2O, 0.002 g, Na3-citrate×2H2O, 1 g, glucose, 5 g, tryptone, 1 g, yeast extract, 0.5 g), centrifuged down at an absorption of approx. 0.8 at 600 nm, washed in 50 mM Tris pH 7.5, and centrifuged down once again. The cells were resuspended in 50 mM Tris/Cl, pH 7.5, 2 mM dithiothreitol, 0.5 mM phenylmethylsulfonyl fluoride and disrupted in a French press. The supernatant from a further centrifugation was used as the enzyme extract in the test. The enzyme activity was determined, in a mixture containing 50 mM Tris/Cl, pH 7.6, 1 mM homoserine and 0.1 mM succinyl-CoA, by photometrically quantifying, by means of the decrease in the extinction at 232 nm, the coenzyme A formed in the reaction, following the method described by Kredich and Tomkins for determining the activity of serine acetyltransferases (Kredich N. M. and Tomkins G. M., J. Biol. Chem. 241, 4955-4965 (1966)). The effect of added L-methionine on the activity was determined and the inhibitability was quantified as a Ki value. The Ki which is determined is the concentration of L-methionine at which the activity of the homoserine transsuccinylase is only 50% of its activity in the absence of L-methionine.
For B1, the “Activity (%) in the presence of 1 mM L-methionine” value was 96%. B2 was tested, and the “Activity (%) in the presence of 1 mM L-methionine” value was 92%. For B3, the “Activity (%) in the presence of 1 mM L-methionine” value was 90%. For B4, the “Activity (%) in the presence of 1 mM L-methionine” value was 93%. With B5 the “Activity (%) in the presence of 1 mM L-methionine” value was 89%.

Same assay, conditions: cell extract of E. coli W3110 transformants; 1 mM homoserine, 0.1 mM succinyl-CoA, 50 mM Tris/Cl pH 7.6
B6 was tested, and the “Activity (U/mg)” value was 0.085 U/mg. In the case of B7, the “Activity (U/mg)” value is reported as 0.155 U/mg. With B1 the “Activity (U/mg)” value was 0.031 U/mg. B8 was tested, and the “Activity (U/mg)” value was 0.020 U/mg. B9 was tested, and the “Activity (U/mg)” value was 0.070 U/mg. In the case of B10, the “Activity (U/mg)” value is reported as 0.133 U/mg. In the case of B11, the “Activity (U/mg)” value is reported as 0.065 U/mg. For B2, the “Activity (U/mg)” value was 0.084 U/mg. For B3, the “Activity (U/mg)” value was 0.045 U/mg. In the case of B12, the “Activity (U/mg)” value is reported as 0.050 U/mg. With B4 the “Activity (U/mg)” value was 0.094 U/mg. In the case of B5, the “Activity (U/mg)” value is reported as 0.027 U/mg. With B13 the “Activity (U/mg)” value was 0.048 U/mg. In the case of B14, the “Activity (U/mg)” value is reported as 0.063 U/mg.

Same assay, conditions: concentration of L-methionine at which activity is only 50% of activity in its absence
B1 gave a Ki of 6 mM. In the case of B2, the Ki is reported as 5 mM. With B3 the Ki was 12 mM. Work on B4 yielded a Ki of 10 mM. B5 gave a Ki of 7.5 mM.

These molecules were tested on homoserine transsuccinylase (assay: Homoserine transsuccinylase activity test (Lee et al.), 5,5'-dithiobis(2-nitrobenzoic acid), absorption at 412 nm, with and without SAM). Conditions: 1 mM SAM; activity in the absence of SAM corresponds to 100%.
Format: biochemical, E. coli
Experimental: In order to determine the sensitivity of the activity of the different homoserine transsuccinylases to SAM, it is possible, for example, to carry out an activity test as described in Lee L. W. et al., J. Biol. Chem. 241, 5479-5480 (1966). In this method, the enzyme extract is incubated with homoserine and succinyl-CoA. After various times, a part of the test assay sample is stopped by adding it to a mixture of ethanol, water, and 5,5′-dithiobis(2-nitrobenzoic acid). The absorption is determined photometrically at 412 nm. The described test is suitable, for example, for determining the sensitivity of the homoserine transsuccinylases to SAM.
The influence of SAM on the activities of the different homoserine transsuccinylases was determined by quantifying the activity in the presence of different concentrations of SAM (Cl salt, Sigma). The cell extracts were grown and prepared as described in Example 3. The activity test was carried out as described in Lee L. W. et al., J. Biol. Chem. 241, 5479-5480 (1966), with the enzyme extract being incubated with 50 mM potassium phosphate buffer, pH 7.5, 3 mM homoserine and 0.3 mM succinyl-CoA. After various times, 100 μl volumes of test mixture were stopped by adding them in each case to a mixture of 400 μl of ethanol, 400 μl of water and 100 μl of 10 mM 5,5′-dithiobis(2-nitrobenzoic acid). After the resulting mixture had been incubated at room temperature for 5 minutes, the absorption was determined photometrically at 412 nm. After the protein concentration had been determined, the enzyme activity was calculated using the extinction coefficient. The Ki was determined as a measure of the ability of SAM to inhibit the activity.
B1 was tested, and the “Activity (%) in the presence of 1 mM SAM” value was 90%. B2 was tested, and the “Activity (%) in the presence of 1 mM SAM” value was 91%. In the case of B3, the “Activity (%) in the presence of 1 mM SAM” value is reported as 93%. For B4, the “Activity (%) in the presence of 1 mM SAM” value was 95%.

Same assay, conditions: SAM (Cl salt, Sigma) as inhibitor
B1 showed a Ki of 8 mM. In the case of B2, the Ki is reported as 7 mM. For B3, the Ki was 16 mM. Molecule B4 has a Ki of 14 mM. In the case of B5, the Ki is reported as 10 mM.

Same assay, conditions: cell extract; 3 mM homoserine, 0.3 mM succinyl-CoA, 50 mM potassium phosphate buffer pH 7.5
In the case of B6, the “Activity (U/mg)” value is reported as 0.33 U/mg. B7 was tested, and the “Activity (U/mg)” value was 0.62 U/mg. For B1, the “Activity (U/mg)” value was 0.20 U/mg. In the case of B8, the “Activity (U/mg)” value is reported as 0.15 U/mg. For B9, the “Activity (U/mg)” value was 0.29 U/mg. For B10, the “Activity (U/mg)” value was 0.49 U/mg. B11 was tested, and the “Activity (U/mg)” value was 0.21 U/mg. B2 was tested, and the “Activity (U/mg)” value was 0.51 U/mg. In the case of B3, the “Activity (U/mg)” value is reported as 0.27 U/mg. B12 was tested, and the “Activity (U/mg)” value was 0.30 U/mg. With B4 the “Activity (U/mg)” value was 0.61 U/mg. For B5, the “Activity (U/mg)” value was 0.15 U/mg. B13 was tested, and the “Activity (U/mg)” value was 0.14 U/mg. For B14, the “Activity (U/mg)” value was 0.26 U/mg.
